From the supplement of paper PMC5949888

The sequences below were run on Saccharomyces cerevisiae PS128 hsf1 delta, HSF1(1-493) fusion (assay: growth estimate (transactivation domain function in HSF1 fusion, heat-shock survival) (a.u. (slope of normalised read count over time)); higher = stronger growth at 37°C, i.e. more transactivation activity). Settings: library: design library.
Procedure, shortened: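 Designed transactivation-domain oligos were fused to truncated yeast HSF1 (amino acids 1–493) and expressed in an hsf1-deleted yeast strain. Cells were replica-plated onto –trp 5-FOA plates and incubated at 30°C or 37°C for 0, 2, 4, 6 and 8 days. Inserts were PCR-amplified and Illumina MiSeq-sequenced as six barcoded replicates from one experiment. Growth estimate is the slope of a robust linear fit over time of read counts normalised to sample totals and starting count.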
Work on EDLYSILWSDVG yielded a growth estimate of -0.0353.
For EDLYSILWSDVK, the growth estimate was 0.0539.
EDLYSILWSDVP showed a growth estimate of 0.204.
EDLYSILWSDVY was tested, and the growth estimate was 0.971.
Sequence EDLYSILWSGVY has a growth estimate of -0.0514.
With EDLYSILWSPVY the growth estimate was -0.241.
In the case of EDLYSILWSRVY, the growth estimate is reported as -0.0908.
For EDLYSIPWSDVY, the growth estimate was -0.196.
EDLYSIRWSDVY was tested, and the growth estimate was -0.219.
For EDLYSPLWSDVY, the growth estimate was less than -0.25.
EDPDEFSLWDSML gave a growth estimate of 1.36.
In the case of EDPYSILWSDVY, the growth estimate is reported as 0.731.
Sequence EDRDEFSLWDSML has a growth estimate of 0.0908.
For EDRYSILWSDVY, the growth estimate was -0.176.
In the case of EFADLLDLDFILSN, the growth estimate is reported as 0.75.
With EFGDLLDLDFILSN the growth estimate was 0.032.
EFKDLLDLDFILSN showed a growth estimate of 0.512.
Sequence EFNDGLDLDFILSN has a growth estimate of -0.0825.
EFNDKLDLDFILSN gave a growth estimate of less than -0.25.
EFNDLADLDFILSN was tested, and the growth estimate was 0.121.
With EFNDLGDLDFILSN the growth estimate was -0.0268.
With EFNDLLALDFILSN the growth estimate was -0.112.
Sequence EFNDLLDKDFILSN has a growth estimate of -0.227.
Sequence EFNDLLDLAFILSN has a growth estimate of -0.217.
EFNDLLDLDAILSN showed a growth estimate of 0.353.
EFNDLLDLDFALSN was tested, and the growth estimate was 3.84.
EFNDLLDLDFGLSN was tested, and the growth estimate was 4.29.
EFNDLLDLDFIASN gave a growth estimate of 0.58.
For EFNDLLDLDFIGSN, the growth estimate was 2.81.
In the case of EFNDLLDLDFIKSN, the growth estimate is reported as -0.165.
Work on EFNDLLDLDFILAN yielded a growth estimate of less than -0.25.
Sequence EFNDLLDLDFILGN has a growth estimate of 4.09.
EFNDLLDLDFILKN was tested, and the growth estimate was 2.1.
In the case of EFNDLLDLDFILPN, the growth estimate is reported as 10.7.
EFNDLLDLDFILRN showed a growth estimate of 5.09.
EFNDLLDLDFILSA was tested, and the growth estimate was -0.12.
Sequence EFNDLLDLDFILSG has a growth estimate of 1.41.
For EFNDLLDLDFILSK, the growth estimate was 0.632.
EFNDLLDLDFILSN gave a growth estimate of 1.51.
For EFNDLLDLDFILSP, the growth estimate was -0.228.
In the case of EFNDLLDLDFILSR, the growth estimate is reported as 0.761.
Sequence EFNDLLDLDFIPSN has a growth estimate of 0.874.
EFNDLLDLDFIRSN was tested, and the growth estimate was -0.0675.
EFNDLLDLDFKLSN showed a growth estimate of -0.099.
For EFNDLLDLDFPLSN, the growth estimate was 1.64.
EFNDLLDLDFRLSN gave a growth estimate of 0.0126.
Work on EFNDLLDLDKILSN yielded a growth estimate of -0.21.
EFNDLLDLDPILSN gave a growth estimate of -0.247.
Work on EFNDLLDLDRILSN yielded a growth estimate of 0.151.
Sequence EFNDLLDLGFILSN has a growth estimate of -0.244.
In the case of EFNDLLDLKFILSN, the growth estimate is reported as -0.169.
Sequence EFNDLLDLRFILSN has a growth estimate of less than -0.25.
Work on EFNDLLDPDFILSN yielded a growth estimate of -0.0736.
With EFNDLLDRDFILSN the growth estimate was -0.0427.
Sequence EFNDLLGLDFILSN has a growth estimate of less than -0.25.
Work on EFNDLLKLDFILSN yielded a growth estimate of -0.0935.
For EFNDLLPLDFILSN, the growth estimate was less than -0.25.
In the case of EFNDLLRLDFILSN, the growth estimate is reported as less than -0.253.
Sequence EFNDLPDLDFILSN has a growth estimate of -0.195.
For EFNDLRDLDFILSN, the growth estimate was -0.248.
EFNDPLDLDFILSN showed a growth estimate of -0.119.
EFNDRLDLDFILSN gave a growth estimate of -0.246.
EFNGLLDLDFILSN showed a growth estimate of -0.173.
With EFNKLLDLDFILSN the growth estimate was less than -0.25.
Sequence EFNPLLDLDFILSN has a growth estimate of less than -0.25.
EFNRLLDLDFILSN was tested, and the growth estimate was less than -0.25.
Sequence EFPDLLDLDFILSN has a growth estimate of 0.17.
EFRDLLDLDFILSN gave a growth estimate of 0.421.
EGDDEFSLWDSML showed a growth estimate of 0.054.
Sequence EGNDLLDLDFILSN has a growth estimate of 0.62.
EKDDEFSLWDSML showed a growth estimate of -0.193.
EKLYSILWSDVY was tested, and the growth estimate was -0.183.
For EPDDEFSLWDSML, the growth estimate was 0.531.
EPLYSILWSDVY gave a growth estimate of -0.136.
For EPNDLLDLDFILSN, the growth estimate was 0.229.
ERDDEFSLWDSML was tested, and the growth estimate was 0.267.
Sequence ERLYSILWSDVY has a growth estimate of less than -0.25.
Work on ERNDLLDLDFILSN yielded a growth estimate of -0.237.
With GADDIWEELLSEDL the growth estimate was 1.28.
GDDDEFSLWDSML was tested, and the growth estimate was 1.64.
GDLYSILWSDVY showed a growth estimate of -0.212.
Work on GEFPGIELQELQELQALLQQ yielded a growth estimate of -0.114.
For GELSWIIELLEKDG, the growth estimate was -0.152.
GFDLDMLGDFDLDMLG gave a growth estimate of 1.03.
GFDYDFLFGNDFA showed a growth estimate of 8.74.
GFNDLLDLDFILSN showed a growth estimate of -0.0099.
For GFPDTQDDFLKWWRSEEAQ, the growth estimate was -0.128.
Sequence GLDESWDYIFETTE has a growth estimate of 1.28.
GLSSHGFSVDTSALLDLFSP was tested, and the growth estimate was 0.18.
GMDDVYNYLFDD was tested, and the growth estimate was 0.253.
With GQNGEIAQLWDFN the growth estimate was less than -0.25.
KADDIWEELLSEDL showed a growth estimate of 0.514.
KDDDEFSLWDSML gave a growth estimate of 0.429.
Work on KDLYSILWSDVY yielded a growth estimate of -0.212.
In the case of KEFPGIELQELQELQALLQQ, the growth estimate is reported as less than -0.25.
With KELSWIIELLEKDG the growth estimate was -0.245.
Sequence KFDLDMLGDFDLDMLG has a growth estimate of 0.164.
In the case of KFDYDFLFGNDFA, the growth estimate is reported as 1.06.
Work on KFNDLLDLDFILSN yielded a growth estimate of 0.326.
For KFPDTQDDFLKWWRSEEAQ, the growth estimate was -0.0955.
Sequence KLDESWDYIFETTE has a growth estimate of -0.0907.
KLSSHGFSVDTSALLDLFSP was tested, and the growth estimate was -0.241.
For KMDDVYNYLFDD, the growth estimate was -0.148.
Work on KQNGEIAQLWDFN yielded a growth estimate of less than -0.25.
LADYDFLFGNDFA gave a growth estimate of 2.67.
For LFAYDFLFGNDFA, the growth estimate was 0.948.
For LFDADFLFGNDFA, the growth estimate was 0.761.
LFDGDFLFGNDFA was tested, and the growth estimate was 1.7.
With LFDKDFLFGNDFA the growth estimate was -0.177.
LFDYAFLFGNDFA was tested, and the growth estimate was 2.15.
LFDYDALFGNDFA was tested, and the growth estimate was 0.627.
LFDYDFGFGNDFA was tested, and the growth estimate was 1.76.
For LFDYDFKFGNDFA, the growth estimate was -0.229.
LFDYDFLAGNDFA gave a growth estimate of 0.0054.
LFDYDFLFANDFA was tested, and the growth estimate was 2.92.
For LFDYDFLFGADFA, the growth estimate was 1.91.
LFDYDFLFGGDFA was tested, and the growth estimate was 5.98.
With LFDYDFLFGKDFA the growth estimate was 2.49.
LFDYDFLFGNAFA gave a growth estimate of 0.211.
LFDYDFLFGNDAA showed a growth estimate of 2.84.
For LFDYDFLFGNDFA, the growth estimate was 6.94.
With LFDYDFLFGNDFG the growth estimate was 0.038.
For LFDYDFLFGNDFK, the growth estimate was 2.23.
LFDYDFLFGNDFP gave a growth estimate of 15.5.
Sequence LFDYDFLFGNDFR has a growth estimate of 3.17.
Sequence LFDYDFLFGNDGA has a growth estimate of 0.693.
With LFDYDFLFGNDKA the growth estimate was 0.271.
LFDYDFLFGNDPA was tested, and the growth estimate was 0.915.
In the case of LFDYDFLFGNDRA, the growth estimate is reported as 0.389.
For LFDYDFLFGNGFA, the growth estimate was 1.45.
LFDYDFLFGNKFA showed a growth estimate of -0.246.
LFDYDFLFGNPFA was tested, and the growth estimate was -0.0703.
With LFDYDFLFGNRFA the growth estimate was -0.205.
Sequence LFDYDFLFGPDFA has a growth estimate of 10.1.
Work on LFDYDFLFGRDFA yielded a growth estimate of 3.41.
LFDYDFLFKNDFA showed a growth estimate of 2.06.
Work on LFDYDFLFPNDFA yielded a growth estimate of 4.58.
Sequence LFDYDFLKGNDFA has a growth estimate of -0.139.
For LFDYDFLPGNDFA, the growth estimate was -0.232.
Work on LFDYDFLRGNDFA yielded a growth estimate of -0.143.
With LFDYDFPFGNDFA the growth estimate was 0.577.
LFDYDFRFGNDFA was tested, and the growth estimate was -0.0564.
With LFDYDGLFGNDFA the growth estimate was 0.114.
For LFDYDKLFGNDFA, the growth estimate was -0.159.
Work on LFDYDPLFGNDFA yielded a growth estimate of 0.326.
LFDYDRLFGNDFA was tested, and the growth estimate was -0.0061.
For LFDYGFLFGNDFA, the growth estimate was 1.29.
Sequence LFDYKFLFGNDFA has a growth estimate of 0.0164.
Sequence LFDYPFLFGNDFA has a growth estimate of 1.53.
With LFDYRFLFGNDFA the growth estimate was -0.216.
LFGYDFLFGNDFA was tested, and the growth estimate was 1.68.
LFPYDFLFGNDFA gave a growth estimate of 1.32.
LFRYDFLFGNDFA gave a growth estimate of -0.0535.
LGDYDFLFGNDFA gave a growth estimate of 2.6.
In the case of LKDYDFLFGNDFA, the growth estimate is reported as -0.0701.
LPDYDFLFGNDFA showed a growth estimate of 2.12.
In the case of LRDYDFLFGNDFA, the growth estimate is reported as -0.135.
In the case of MASSHGFSVDTSALLDLFSP, the growth estimate is reported as 0.0397.
With MGSSHGFSVDTSALLDLFSP the growth estimate was 0.215.
MKSSHGFSVDTSALLDLFSP showed a growth estimate of -0.215.
MLASHGFSVDTSALLDLFSP gave a growth estimate of -0.0319.
MLGSHGFSVDTSALLDLFSP gave a growth estimate of 0.0043.
For MLKSHGFSVDTSALLDLFSP, the growth estimate was -0.17.
With MLPSHGFSVDTSALLDLFSP the growth estimate was -0.0639.
With MLSAHGFSVDTSALLDLFSP the growth estimate was -0.231.
With MLSGHGFSVDTSALLDLFSP the growth estimate was -0.0767.
MLSKHGFSVDTSALLDLFSP showed a growth estimate of -0.229.
MLSPHGFSVDTSALLDLFSP gave a growth estimate of 0.158.
MLSSAGFSVDTSALLDLFSP showed a growth estimate of -0.0464.
With MLSSHAFSVDTSALLDLFSP the growth estimate was -0.157.
MLSSHGASVDTSALLDLFSP gave a growth estimate of -0.0827.
MLSSHGFAVDTSALLDLFSP gave a growth estimate of -0.142.
For MLSSHGFGVDTSALLDLFSP, the growth estimate was -0.0322.
MLSSHGFKVDTSALLDLFSP showed a growth estimate of less than -0.25.
MLSSHGFPVDTSALLDLFSP was tested, and the growth estimate was -0.119.
MLSSHGFRVDTSALLDLFSP was tested, and the growth estimate was -0.241.
Work on MLSSHGFSADTSALLDLFSP yielded a growth estimate of -0.026.
For MLSSHGFSGDTSALLDLFSP, the growth estimate was -0.115.
MLSSHGFSKDTSALLDLFSP showed a growth estimate of -0.239.
MLSSHGFSPDTSALLDLFSP gave a growth estimate of 0.374.
With MLSSHGFSRDTSALLDLFSP the growth estimate was less than -0.25.
For MLSSHGFSVATSALLDLFSP, the growth estimate was -0.234.
Sequence MLSSHGFSVDASALLDLFSP has a growth estimate of 0.0915.
MLSSHGFSVDGSALLDLFSP gave a growth estimate of -0.0946.
Work on MLSSHGFSVDKSALLDLFSP yielded a growth estimate of -0.249.
MLSSHGFSVDPSALLDLFSP was tested, and the growth estimate was -0.0885.
MLSSHGFSVDRSALLDLFSP was tested, and the growth estimate was -0.204.
Work on MLSSHGFSVDTGALLDLFSP yielded a growth estimate of -0.207.
With MLSSHGFSVDTKALLDLFSP the growth estimate was -0.145.
For MLSSHGFSVDTPALLDLFSP, the growth estimate was -0.228.
MLSSHGFSVDTSAALDLFSP was tested, and the growth estimate was -0.124.
For MLSSHGFSVDTSAGLDLFSP, the growth estimate was -0.207.
